Results published in the supplement of paper PMC9170038.

tested on: MS2 coat protein; assay: apparent KD of MS2 coat protein, switch ON state; designed switch direction (-1 OFF switch, 1 ON switch): -1; higher = weaker reporter binding; details: FMN input: 0 or 200 uM; Eterna round: R93 (includes R88 designs)
In short: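 Illumina sequencing clusters were used for on-chip transcription of designed RNA switches. Titration with SNAP-549-labelled MS2 coat protein followed, in twofold steps from 0.7 or 1.5 nM to 3 µM in 100 mM Tris-HCl pH 7.5, 80 mM KCl, 4 mM MgCl2, without or with constant ligand. Apparent KD is each design's median of fits to normalised cluster binding curves.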

| Sequence | apparent KD of MS2 coat protein |
| --- | --- |
| AAGAUCAGAGGAUAUACAUAAGGUGAUGGAGACAUCGCCAAACAUGAGGAUCACCCAUGUAGAAGGCUGAUCAA [Mat - Exclusion 2 - JL mod - D62] | 36.8 nM |
| AGUCAGAGAGGAUAUACAUGGGAAAAAAAAGUAAGAUCCCUACAUGAGGAUCACCCAUGUAGAAGGCUCUGACA [Ex2 Design 139: Sub-opt 3] | 22.6 nM |
| AAAGAGCAAGGAUAUACAUGAGGAUCACCCAUGUAUGGAGAUACAAAACAAAAGAUCAGUAGAAGGUGCGGAUG [Rageleor] | 20.3 nM |
| GGAAAACAUGAGGAUCACCCAUGUCAGGAUAUGUGAAAAAAAAAAAAAAGAAAAGAAAACAGAAGGGACAAAAG [amethyst 6] | 80.8 nM |
| AAAAAGUCAGGAUAUACAAAAGUGCGAAAGCACAAAAAGGGACAUGAGGAUCACCCAUGUAGAAGGGACAAGAA [Married to this design, 61% 4] | 73.3 nM |
| AGCUAGUCAGGAUAUACGAAAAUGUCAGAAGCUGUGAAGGGACAUGAGGAUCACCCAUGUAGAAGGGACUAGCA [Diamond 38] | 69.1 nM |
| AAAAAGUUAGGAUAUACAUGAGGAUCACCCAUGUGCACAUAUGGAGAAUAUGGUAGUAGUAGAAGGGACAAAAA [EX2 Malc#16] | 30.3 nM |
| AAACCACAUGAGGAUCACCCAUGUAAGGAUAUGAACGAAAAUAAAUAAAAAUAAAAGUUCAGAAGGUACAAAAA [66%, Wbt, 22] | 26.3 nM |
| GAAGAACAUGAGGAUCACCCAUGUCAGGAUAUGCGCAAGGGAAUAAUAACUUGCGGAAGCAGAAGGGACAAGAA [Ex 1 May 50] | 18.9 nM |
| AAAAAGUGAGGAUAUACAUGAGGAUCACCCAUGUGAAGGGAAGAAAGAAAGAAAGAAAGUAGAAGGCACAAAAA [Default title] | 51.1 nM |
| AAAGGACAAGGAUAUACAUGAGGAUCACCCAUGUAAAAAACAUAAUAAAAGAACUUAUGUAGAAGGUGUCCAAA [69%, Moding Meechl, 8] | 38.3 nM |
| GAAAACAGAGGAUAUACGAAAUUGACACGAAAAGUGCAGGGACAUGAGGAUCACCCAUGUAGAAGGCUGAAGAA [Meechl MS2... 60% 1] | 27.7 nM |
| GAAUGACUAGGAUAUACAUGAGGAUCACCCAUGUGUUAAAAUAAAUACACAAAAGAAAGUAGAAGGAGUCAAAG [Mat - Exclusion 3 - Mayanna mod - D126] | 21 nM |
| AAAAGGGCAGGAUAUGCAUGUUGGCAAAAUUCUCAUCAAACACAUGAGGAUCACCCAUGUAGAAGGGCCAACGG [Inonenonat] | 110 nM |
| AUAGGUCAAGGAUAUACAUGAGGAUCACCCAUGUAAAUAACUCCAUAAAACUCCACAAGUAGAAGGUGAAAUAA [JR_Exc003_Sub202] | 17.9 nM |
| AAGAACUGAGGAUAUACUUUGGGAAAAGAAAAGAUGAUGUUACAUGAGGAUCACCCAUGUAGAAGGCAGAAGAA [Mat - Exclusion 2 - Mod - D153] | 27 nM |
| GAAAAGUGAGGAUAUACAUGAGGAUCACCCAUGUGUAUAAAAAAUUACACAAAAGAAAGUAGAAGGCACUAAAG [Mat - Exclusion 3 - Mayanna mod - D113] | 17.7 nM |
| GUCCUACAUGAGGAUCACCCAUGUCAGGAUAUGCACCGGUUGCUUUAGACCGGUAAAGGCAGAAGGGACGGGUG [Orzadima] | 23.2 nM |
| AACAGUACAGGAUAUACAUGAGGAUCACCCAUGUGAGAAUUAAGUGGAGUACCACAAAGUAGAAGGGUACUGGA [Mat - Exclusion 3 - JL mod - D4] | 28.9 nM |
| AAAAAGUCAGGAUAUGCGAAGGCGUCUGAUAGACGAGGCUAGCAGAAGGGACAUGAGGAUCACCCAUGUAAAAA [Mat - Exclusion 4 - Rerun - D81] | 50.5 nM |
| AUGUAGGGAGGAUAUACAUAGAUACAGAUUCGUGUAGAACUACAUGAGGAUCACCCAUGUAGAAGGCCCUAAAA [Mat - Same state - Mayanna Mod - D124] | 20.1 nM |
| AGGUAGUCAGGAUAUACAAACAUGUCAAAAGACGUGAAAAAACAUGAGGAUCACCCAUGUAGAAGGGACUACCA [Mat - Exclusion 2 - JL mod - D21] | 18 nM |

| Sequence | apparent KD of MS2 coat protein |
| --- | --- |
| AAAGAUACAGGAUAUACAUGAGGAUCACCCAUGUUAGACCAAAAAUGGGAAAAAGAAAGUAGAAGGGUAUAAAA [Ex 3 May 35] | 26 nM |
| AAGAACGCAGGAUAUAUUAAGGGACAAAGAAGGAAGAAUAAACAUGAGGAUCACCCAUGUAGAAGGGCGAAGAA [JR_Exclusion2_Sub4] | 49.4 nM |
| AGCUAGUCAGGAUAUACAAAGAUGUCGAAAGACGUCAAGGGACAUGAGGAUCACCCAUGUAGAAGGGACUAGCA [Mod of Janderson's WEB Mod v.3] | 56.2 nM |
| AAAAAGGGAGGAUAUGCAUACACAAAAAAAAAAAAAAAAAAACAUGAGGAUCACCCAUGUAGAAGGCCCAAAAA [Dora Explored 3 - Jieux - Exclusion 2] | 37.4 nM |
| CUCAAGUGAGGAUAUAAAAGAAAAGAAGAGAAAGAAAAGAAUUAGAAGGCACAUGAGGAUCACCCAUGUAAGAA [EteRNA is fun!] | 39.4 nM |
| CUGGAGUCAGGAUAUACGAACAUGUCGCCAGAUGUCAAGGUACAUGAGGAUCACCCAUGUAGAAGGGAGGAGAA [salish99-Ex2-33] | 95.2 nM |
| AAGAAGCAAGGAUAUACAUGAGGAUCACCCAUGUAAAAGAAAGAGGGAAAAGAGAAAAGUAGAAGGUGCAAGAA [Ptolemy VI Philometor] | 22.6 nM |
| AAAAAGUCAGGAUAUGCGAAGGCGUCUGAUAGACGAGGCUAGCAGAAGGGACAUGAGGAUCACCCAUGUGAAAA [Mat - Mod of Nando 64% 1] | 57.9 nM |
| AACAGUACAGGAUAUACAUGAGGAUCACCCAUGUGAAGAUUAAGUGGAGUACCACAAAGUAGAAGGGUACUGGA [Ruby 89] | 28.1 nM |
| CUCAAGUAAGGAUAUGGAAGAAAAGAAGAGAAAGAAAAGAACCAGAAGGUACAUGAGGAUCACCCAUGUAAGAA [EteRNA is fun!] | 37.2 nM |
| AACAGUACAGGAUAUACAUGAGGAUCACCCAUGUGAGACUUAAAAGGCGUACCUAAAAGUAGAAGGGUACUGGA [JL Maslow Revisted mod 21] | 56.1 nM |
| AACAAACAUGAGGAUCACCCAUGUGAGGAUAUACAAACAAACAAAAACAAAACAAAAAGUAGAAGGCACAACAA [JR_Exc001_Sub002] | 19.4 nM |
| CGCAAGUCAGGAUAUUCGACAAGUAAAUCAGUAGAUCAGAAGAAGAAGGGACAUGAGGAUCACCCAUGUAAGUA [JR_Exc004_Sub404] | 29.1 nM |
| AAGAAACAUGAGGAUCACCCAUGUAAGGAUAUCUAAAAGAAAAGAAAAGAAAGAAGAAAGAGAAGGUACAAAGG [Nebhetepre Mentuhotep II] | 87.3 nM |
| AGUCGGCGAGGAUAUACAUGAGGAUCACCCAUGUGAGAGAAAAAAGUGAGAAAGAAAUGUAGAAGGCGCUGACA [JL Lego Mod 1] | 90.8 nM |
| UUUAUGUGAGGAUAUACGAAUAGUAAGUAAGUAUUACAGACGUAGAAGGCACAUGAGGAUCACCCAUGUGAAUA [JR_Exc004_Sub307] | 32.7 nM |
| AGUCAUACAGGAUAUACAUGAGGAUCACCCAUGUAAAUCCUAAAAAGAAAAAACUCAUGUAGAAGGGUAUGACA [EX3 223: Super Stable 23] | 16.1 nM |
| AAGAAGCGAGGAUAUACAUGAGGAUCACCCAUGUAAAAGAAAGAGGGAAAAGAGAAAAGUAGAAGGCGCAAGAA [Philip III Arrhidaeus] | 84.2 nM |
| AAAAAGGGAGGAUAUACAUGAGGAUCACCCAUGUAACAGACGAAAAAGAGUCUGAAAAGUAGAAGGCCCAAAAA [65%, Moding Exclusion3-cac2, 7] | 24.7 nM |
| AAAAAGUGAGGAUAUACAUGAAAAAAAAAAAAAAAAAAAAAACAUGAGGAUCACCCAUGUAGAAGGCGCAAAAA [GC GU GC sandwich] | 31.5 nM |
| AAAAAGUGAGGAUAUAGCAAAGGUCACGAAAGUGACAAAGGCUAGAAGGCACAUGAGGAUCACCCAUGUCCAAG [Mat - Exclusion 4 - Eli mod - D98] | 28.6 nM |
| AGCUAGUCAGGAUAUACGAGAAUGAAAGAAGACGUGAAGGGACAUGAGGAUCACCCAUGUAGAAGGGACUAGCA [Diamond 25] | 36.1 nM |
